Experiment [1] has as its target KRAS G12V peptide on HLA-DRA*01:01 / HLA-DRB1*07:01 (human). As to the kind of experiment: NFAT-luciferase; peptide titration in the Jurkat-NFAT and COS-7 system; full-length, on cells. As to conditions: chains Valpha:Vbeta.
Experiment [2] has as its target KRAS G12V presented by HLA-DRB1*07:01 (human), P01116. Nature of the experiment: cell-based or functional assay.

B1: 9976-TCR38-2 (protein)
chain 1: QSVTQLGSHVSVSEGALVLLRCNYSSSVPPYLFWYVQYPNQGLQLLLKYTTGATLVKGINGFEAEFKKSETSFHLTKPSAHMSDAAEYFCAVTEPGGYQKVTFGTGTKLQVIP
chain 2: AVVSQHPSRVICKSGTSVKIECRSLDFQATTMFWYRQFPKQSLMLMATSNEGSKATYEQGVEKDKFLINHASLTLSTLTVTSAHPEDSSFYICSATGQHAGANVLTFGAGSRLTVL
B1: the lowest peptide concentration with reactivity in experiment [1] was below 1 ng/mL.

B2: 9976-TCR38-2 (TCR)
TCR alpha: AQSVTQLGSHVSVSEGALVLLRCNYSSSVPPYLFWYVQYPNQGLQLLLKYTTGATLVKGINGFEAEFKKSETSFHLTKPSAHMSDAAEYFCAVTEPGGYQKVTFGTGTKLQVIPNIQNPEPAVNIQNPEPAVYQLKDPRSQDSTLCLFTDFDSQINVPKTMESGTFITDKTVLDMKAMDSKSNGAIAWSNQTSFTCQDIFKETNATYPSSDVPCDATLTEKSFETDMNLNFQNLLVIVLRILLLKVAGFNLLMTLRLWSS
TCR beta: GAVVSQHPSRVICKSGTSVKIECRSLDFQATTMFWYRQFPKQSLMLMATSNEGSKATYEQGVEKDKFLINHASLTLSTLTVTSAHPEDSSFYICSATGQHAGANVLTFGAGSRLTVLEDLRNEDLRNVTPPKVSLFEPSKAEIANKQKATLVCLARGFFPDHVELSWWVNGKEVHSGVSTDPQAYKESNYSYCLSSRLRVSATFWHNPRNHFRCQVQFHGLSEEDKWPEGSPKPVTQNISAEAWGRADCGITSASYQQGVLSATILYEILLGKATLYAVLVSTLVVMAMVKRKNS
B2 yielded a peptide concentration at which reactivity is still seen (peptide titration, Jurkat-NFAT & COS-7 system) in experiment [2] of 1 ng/mL.
